The results in this text go back to patent US20150197564A1 (Regeneron, published 2015).

The target in assay [1] is T1, hANGPTL3(17-460)-His (human, UniProt Q9Y5C1 17-460).
T1 construct: Bought protein (R&D Systems); also called full-length mature human ANGPTL3 with a C-terminal decahistidine tag; Human ANGPTL3 (17-460)-His
T1 sequence: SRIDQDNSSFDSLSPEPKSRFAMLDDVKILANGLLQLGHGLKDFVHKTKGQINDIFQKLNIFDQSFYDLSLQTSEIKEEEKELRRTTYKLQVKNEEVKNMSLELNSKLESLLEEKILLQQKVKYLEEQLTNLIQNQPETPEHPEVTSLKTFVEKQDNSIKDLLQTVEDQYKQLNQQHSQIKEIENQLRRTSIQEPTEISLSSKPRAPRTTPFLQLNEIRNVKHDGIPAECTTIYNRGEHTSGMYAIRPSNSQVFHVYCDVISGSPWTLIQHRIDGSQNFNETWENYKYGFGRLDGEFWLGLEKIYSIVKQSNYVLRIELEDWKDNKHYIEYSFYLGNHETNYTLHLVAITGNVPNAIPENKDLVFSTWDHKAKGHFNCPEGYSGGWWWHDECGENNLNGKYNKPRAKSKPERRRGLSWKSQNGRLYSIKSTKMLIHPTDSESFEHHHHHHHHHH
In words: SPR Biacore, antigen captured, 25C, pH 5.75, PBSP. The procedure: (§1) All kinetic binding experiments were performed at 25° C. or 37° C. on a BIACORE™ T200 label-free molecular interaction instrument (GE Healthcare) using a CM5 sensor chip. Briefly, an antigen capture surface was generated by covalently coupling either an anti-mouse IgG-specific antibody (anti-mFc; GE Healthcare; catalog #BR-1008-38) or an anti-pentahistidine-specific antibody (Qiagen; catalog #34660) to the surface of a CM5 sensor chip using a standard amine coupling method.
On the technique in general: Surface plasmon resonance follows binding to a sensor surface in real time, without labels.

A further assay concerns the target T2, hANGPTL3(17-170)-His (human, UniProt Q9Y5C1 17-170).
T2 construct: also called N-terminal coiled-coil domain of hANGPTL3 with a C-terminal hexahistidine tag; Human ANGPTL3 (17-170)-His
T2 sequence: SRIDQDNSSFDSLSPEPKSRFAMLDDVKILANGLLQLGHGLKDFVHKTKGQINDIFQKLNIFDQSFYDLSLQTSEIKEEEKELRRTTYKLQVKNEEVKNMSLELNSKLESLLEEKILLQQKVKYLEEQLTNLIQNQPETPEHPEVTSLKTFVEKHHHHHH
Kind of assay: SPR Biacore, antigen captured, 25C, pH 5.75, PBSP. On the procedure: as §1

A further assay addresses T3, MfANGPTL3(17-170)-mmH (Macaca fascicularis).
T3 construct: also called N-terminal coiled-coil domain of ANGPTL3 from Macaca fascicularis with myc-myc-hexahistidine tag; Monkey ANGPTL3 (17-170)-mmH
T3 chain: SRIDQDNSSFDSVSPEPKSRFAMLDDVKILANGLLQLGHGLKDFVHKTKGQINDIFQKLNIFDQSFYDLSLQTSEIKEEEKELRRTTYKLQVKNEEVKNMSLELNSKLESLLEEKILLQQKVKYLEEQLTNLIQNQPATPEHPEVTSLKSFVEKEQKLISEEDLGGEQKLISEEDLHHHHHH
Kind of assay: SPR Biacore, antigen captured, 25C, pH 5.75, PBSP. The procedure:
as §1

Assay [2] has as its target T1, hANGPTL3(17-460)-His. Kind of assay: SPR Biacore, antigen captured, 25C, pH 7.4, HBS-EP. On the procedure:
as §1

The target of a further assay is T4, hANGPTL3(17-169)-mFc (human).
T4 construct: also called N-terminal coiled-coil domain of hANGPTL3 with a C-terminal mouse Fc fusion
T4 chain: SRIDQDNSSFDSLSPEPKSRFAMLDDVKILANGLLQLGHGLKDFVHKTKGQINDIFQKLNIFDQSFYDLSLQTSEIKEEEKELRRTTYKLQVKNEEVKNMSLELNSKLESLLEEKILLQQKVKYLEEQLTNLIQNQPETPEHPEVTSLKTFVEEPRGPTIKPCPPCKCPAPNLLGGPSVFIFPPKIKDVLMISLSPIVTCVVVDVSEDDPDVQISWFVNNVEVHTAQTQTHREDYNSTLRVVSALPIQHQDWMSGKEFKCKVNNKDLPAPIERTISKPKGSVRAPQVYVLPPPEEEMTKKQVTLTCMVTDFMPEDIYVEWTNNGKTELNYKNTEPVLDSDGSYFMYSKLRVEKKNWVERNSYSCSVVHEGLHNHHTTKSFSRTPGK
Kind of assay: SPR Biacore, antigen captured, 25C, pH 7.4, HBS-EP. The procedure: as §1

Assay [3] concerns the target T5, N-terminal biotin tagged Peptide 1 (human, N-terminal biotin tag).
T5 construct: Immobilised on streptavidin biosensor tips; also called control ANGPTL4 peptide; hANGPTL4 peptide
T5 peptide: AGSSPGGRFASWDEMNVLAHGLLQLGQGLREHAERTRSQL
Kind of assay: OCTET RED label-free biosensor; biotinylated peptide on streptavidin-coated tips dipped into 1 uM antibody, binding monitored for 2.5 minutes. On the procedure:
(§2) To assess the binding of the anti-ANGPTL3 antibody H4H1276S to peptides derived from the N-terminal coiled-coil region of ANGPTL3, a label-free biosensor binding assay was performed using OCTET® RED system (ForteDo, Inc.). […] The peptide-coated biosensor tips were then dipped into wells containing 1 μM of either anti-ANGPTL3 antibody H4H1276S or an isotype-matched negative control antibody, and binding was monitored for 2.5 minutes. It was observed that H4H1276S binds to the ANGPTL3 linear sequence defined by Peptide 2 but not the overlapping but distinct sequence defined by Peptide 3 (see also FIG. 1). The isotype control antibody also served as a positive control for loading of Peptide 1 (i.e., hANGPTL4 peptide) onto the biosensor, because this isotype control antibody specifically recognizes hANGPTL4.

Assay [4] has as its target T6, N-terminal biotin tagged Peptide 2 (human, N-terminal biotin tag).
T6 construct: Immobilised on streptavidin biosensor tips; also called ANGPTL3 peptide
T6 peptide: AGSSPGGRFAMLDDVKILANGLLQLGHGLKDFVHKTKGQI
The description is as above. The procedure:
as §2

Assay [5] concerns the target T7, C-terminal biotin tagged Peptide 3 (human, C-terminal biotin tag).
T7 construct: Immobilised on streptavidin biosensor tips; also called ANGPTL3 peptide
T7 peptide: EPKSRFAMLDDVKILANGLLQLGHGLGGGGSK
The description is as above. The procedure:
as §2

B1: H4H1276S (antibody, IgG4, V domains shown)
VH: EVQLVESGGGVIQPGGSLRLSCAASGFTFDDYAMNWVRQGPGKGLEWVSAISGDGGSTYYADSVKGRFTISRDNSKNSLYLQMNSLRAEDTAFFYCAKDLRNTIFGVVIPDAFDIWGQGTMVTVSS
VL: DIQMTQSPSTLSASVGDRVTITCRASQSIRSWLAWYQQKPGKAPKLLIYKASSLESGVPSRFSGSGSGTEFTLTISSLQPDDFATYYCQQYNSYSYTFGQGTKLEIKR
By Kd is commonly meant a measure of binding affinity in units of concentration. What is called koff is the rate constant with which the complex falls apart. The kon is a measure of how fast the partners come together. Lower therefore signals slow association. Consider B1, for which the Kd in the assay with hANGPTL3(17-460)-His [1] is 67.5 nM; with hANGPTL3(17-170)-His it was 24 nM; with MfANGPTL3(17-170)-mmH it was 21 nM; with hANGPTL3(17-460)-His [2] it was 1.35 nM; with hANGPTL3(17-169)-mFc, 0.659 nM. The dissociation rate constant (koff) in the assay with hANGPTL3(17-460)-His [1] turned out to be 0.00494 s⁻¹; in the assay with hANGPTL3(17-170)-His it was 0.00672 s⁻¹; in the assay with MfANGPTL3(17-170)-mmH it was 0.00432 s⁻¹; with hANGPTL3(17-460)-His [2] it was 0.000464 s⁻¹; with hANGPTL3(17-169)-mFc it was 0.000383 s⁻¹. For the same molecule, the kon in the assay with hANGPTL3(17-460)-His [1] amounted to 73200 M⁻¹ s⁻¹; in the assay with hANGPTL3(17-170)-His it was 280000 M⁻¹ s⁻¹; with MfANGPTL3(17-170)-mmH it was 206000 M⁻¹ s⁻¹; in the assay with hANGPTL3(17-460)-His [2], 344000 M⁻¹ s⁻¹; with hANGPTL3(17-169)-mFc it was 582000 M⁻¹ s⁻¹. Besides, the t1/2 with hANGPTL3(17-460)-His [1] is 2.3 min; with hANGPTL3(17-170)-His it was 1.7 min; with MfANGPTL3(17-170)-mmH, 2.7 min; with hANGPTL3(17-460)-His [2], 25 min; with hANGPTL3(17-169)-mFc it was 30 min. The figures for the binding result in assay [3], in assay [4] and in assay [5] were “no binding (tested: 1 uM)”, “binds” and “no binding (tested: 1 uM)”, respectively.
